Laboratory results from US20240132578A1.

Tests used:
Assay in all cases: cell-based or functional assay
[1] = target: HIV-1 Env of isolate MGRM-G-001 (subtype G), on pseudovirus (HIV-1)
[2] = target: HIV-1 Env of isolate MGRM-G-016 (subtype G), on pseudovirus (HIV-1)
[3] = target: HIV-1 Env of isolate MGRM-C-017 (subtype C) (HIV-1)
[4] = target: HIV-1 Env of isolate MGRM-G-025 (subtype G), on pseudovirus (HIV-1)
[5] = target: HIV-1 Env of isolate MGRM-C-027 (subtype C) (HIV-1)
[6] = target: HIV-1 Env of isolate MGRM-G-019 (subtype G), on pseudovirus (HIV-1)
[7] = target: HIV-1 Env of isolate MGRM-C-025 (subtype C) (HIV-1)
[8] = target: HIV-1 Env of isolate MGRM-C-014 (subtype C) (HIV-1)
[9] = target: HIV-1 Env of isolate MGRM-C-005 (subtype C) (HIV-1)
[10] = target: HIV-1 Env of isolate MGRM-G-013 (subtype G), on pseudovirus (HIV-1)
[11] = target: HIV-1 Env of isolate MGRM-C-023 (subtype C) (HIV-1)
[12] = target: HIV-1 Env of isolate MGRM-C-012 (subtype C) (HIV-1)
[13] = target: HIV-1 Env of isolate MGRM-C-008 (subtype C) (HIV-1)
[14] = target: HIV-1 Env of isolate MGRM-G-006 (subtype G), on pseudovirus (HIV-1)
[15] = target: HIV-1 Env of isolate MGRM-G-015 (subtype G), on pseudovirus (HIV-1)
[16] = target: HIV-1 Env of isolate MGRM-G-004 (subtype G), on pseudovirus (HIV-1)
[17] = target: HIV-1 Env of isolate MGRM-C-010 (subtype C) (HIV-1)
[18] = target: HIV-1 Env of isolate MGRM-C-002 (subtype C) (HIV-1)
[19] = target: HIV-1 Env of isolate 97ZA012 (subtype C) (HIV-1)
[20] = target: HIV-1 Env of isolate MGRM-C-006 (subtype C) (HIV-1)
[21] = target: HIV-1 Env of isolate MGRM-C-022 (subtype C) (HIV-1)
[22] = target: HIV-1 Env of isolate MGRM-C-001 (subtype C) (HIV-1)
[23] = target: HIV-1 Env of isolate MGRM-G-017 (subtype G), on pseudovirus (HIV-1)
[24] = target: HIV-1 Env of isolate MGRM-G-009 (subtype G), on pseudovirus (HIV-1)
[25] = target: HIV-1 Env of isolate MGRM-C-024 (subtype C) (HIV-1)
[26] = target: aMLV envelope, on pseudovirus (negative control)
[27] = target: HIV-1 Env of isolate MGRM-C-028 (subtype C) (HIV-1)
[28] = target: HIV-1 Env of isolate MGRM-G-014 (subtype G), on pseudovirus (HIV-1)
[29] = target: HIV-1 Env of isolate MGRM-G-024 (subtype G), on pseudovirus (HIV-1)
[30] = target: HIV-1 Env of isolate MGRM-C-009 (subtype C) (HIV-1)
[31] = target: HIV-1 Env of isolate MGRM-C-019 (subtype C) (HIV-1)
[32] = target: HIV-1 Env of isolate 93MW959 (subtype C) (HIV-1)
[33] = target: HIV-1 Env of isolate MGRM-C-020 (subtype C) (HIV-1)
[34] = target: HIV-1 Env of isolate MGRM-G-028 (subtype G), on pseudovirus (HIV-1)
[35] = target: HIV-1 Env of isolate MGRM-G-027 (subtype G), on pseudovirus (HIV-1)
[36] = target: HIV-1 Env of isolate MGRM-C-026 (subtype C) (HIV-1)
[37] = target: HIV-1 Env of isolate MGRM-C-013 (subtype C) (HIV-1)
[38] = target: HIV-1 Env of isolate MGRM-G-011 (subtype G), on pseudovirus (HIV-1)
[39] = target: HIV-1 Env of isolate 98IN022 (subtype C) (HIV-1)
[40] = target: HIV-1 Env of isolate MGRM-C-007 (subtype C) (HIV-1)
[41] = target: HIV-1 Env of isolate MGRM-C-004 (subtype C) (HIV-1)
[42] = target: HIV-1 Env of isolate MGRM-C-015 (subtype C) (HIV-1)
[43] = target: HIV-1 JR-CSF Env D474A (HIV-1 JR-CSF) (UniProt P20871)
[44] = target: HIV-1 JR-CSF Env G471A (HIV-1 JR-CSF) (UniProt P20871)

In the case of PGT-121 (antibody), the IC50 (µg/mL), neutralization of pseudovirus [1] is reported as 0.004 µg/mL, the IC50 (µg/mL), neutralization of pseudovirus [2] is reported as greater than 50 µg/mL and the IC50 (µg/mL), pseudovirus neutralization [3] is reported as 0.009 µg/mL. It also gave an IC50 (µg/mL), neutralization of pseudovirus [4] of 0.063 µg/mL, an IC50 (µg/mL), pseudovirus neutralization [5] of 0.011 µg/mL and an IC50 (µg/mL), neutralization of pseudovirus [6] of 0.011 µg/mL. For the same substance, the IC50 (µg/mL), pseudovirus neutralization [7] was 46.8 µg/mL, the IC50 (µg/mL), pseudovirus neutralization [8] was 26.9 µg/mL and the IC50 (µg/mL), pseudovirus neutralization [9] was 0.015 µg/mL. For the same substance, the IC50 (µg/mL), neutralization of pseudovirus [10] was 3.99 µg/mL, the IC50 (µg/mL), pseudovirus neutralization [11] was 0.017 µg/mL and the IC50 (µg/mL), pseudovirus neutralization [12] was 0.123 µg/mL. It also gave an IC50 (µg/mL), pseudovirus neutralization [13] of 0.012 µg/mL, an IC50 (µg/mL), neutralization of pseudovirus [14] greater than 50 µg/mL and an IC50 (µg/mL), neutralization of pseudovirus [15] greater than 50 µg/mL. For the same substance, the IC50 (µg/mL), neutralization of pseudovirus [16] was 0.115 µg/mL, the IC50 (µg/mL), pseudovirus neutralization [17] was greater than 50 µg/mL and the IC50 (µg/mL), pseudovirus neutralization [18] was 0.019 µg/mL. It also gave an IC50 (µg/mL), pseudovirus neutralization [19] of 0.002 µg/mL, an IC50 (µg/mL), pseudovirus neutralization [20] of 0.017 µg/mL and an IC50 (µg/mL), pseudovirus neutralization [21] of 0.015 µg/mL. It also gave an IC50 (µg/mL), pseudovirus neutralization [22] of 17.5 µg/mL, an IC50 (µg/mL), neutralization of pseudovirus [23] of 0.004 µg/mL and an IC50 (µg/mL), neutralization of pseudovirus [24] of 0.02 µg/mL. For the same substance, the IC50 (µg/mL), pseudovirus neutralization [25] was 0.052 µg/mL, the IC50 (µg/mL), neutralization of pseudovirus [26] was greater than 50 µg/mL and the IC50 (µg/mL), pseudovirus neutralization [27] was 0.472 µg/mL. For the same substance, the IC50 (µg/mL), neutralization of pseudovirus [28] was 0.009 µg/mL, the IC50 (µg/mL), neutralization of pseudovirus [29] was 0.014 µg/mL and the IC50 (µg/mL), pseudovirus neutralization [30] was greater than 50 µg/mL. For the same substance, the IC50 (µg/mL), pseudovirus neutralization [31] was greater than 50 µg/mL, the IC50 (µg/mL), pseudovirus neutralization [32] was 0.013 µg/mL and the IC50 (µg/mL), pseudovirus neutralization [33] was greater than 50 µg/mL. It also gave an IC50 (µg/mL), neutralization of pseudovirus [34] of 0.014 µg/mL, an IC50 (µg/mL), neutralization of pseudovirus [35] of 0.124 µg/mL and an IC50 (µg/mL), pseudovirus neutralization [36] of 0.002 µg/mL. For the same substance, the IC50 (µg/mL), pseudovirus neutralization [37] was 7.23 µg/mL, the IC50 (µg/mL), neutralization of pseudovirus [38] was 3.17 µg/mL and the IC50 (µg/mL), pseudovirus neutralization [39] was 0.007 µg/mL. The IC50 (µg/mL), pseudovirus neutralization [40] was 0.196 µg/mL, the IC50 (µg/mL), pseudovirus neutralization [41] was 0.011 µg/mL and the IC50 (µg/mL), pseudovirus neutralization [42] was 25.1 µg/mL.
PGT-122 (antibody) was tested, and the IC50 (µg/mL), neutralization of pseudovirus [1] was 0.005 µg/mL, the IC50 (µg/mL), neutralization of pseudovirus [2] was greater than 50 µg/mL and the IC50 (µg/mL), pseudovirus neutralization [3] was 0.015 µg/mL. The IC50 (µg/mL), neutralization of pseudovirus [4] was 0.079 µg/mL, the Fold IC50 increase relative to wild-type [43] was 1.8 fold and the IC50 (µg/mL), pseudovirus neutralization [5] was 0.039 µg/mL. For the same substance, the IC50 (µg/mL), neutralization of pseudovirus [6] was 0.016 µg/mL, the IC50 (µg/mL), pseudovirus neutralization [7] was 8.69 µg/mL and the IC50 (µg/mL), pseudovirus neutralization [8] was greater than 50 µg/mL. For the same substance, the IC50 (µg/mL), pseudovirus neutralization [9] was 0.027 µg/mL, the IC50 (µg/mL), neutralization of pseudovirus [10] was 3.45 µg/mL and the IC50 (µg/mL), pseudovirus neutralization [11] was 0.027 µg/mL. It also gave an IC50 (µg/mL), pseudovirus neutralization [12] of 2 µg/mL, an IC50 (µg/mL), pseudovirus neutralization [13] of 0.028 µg/mL and an IC50 (µg/mL), neutralization of pseudovirus [14] greater than 50 µg/mL. For the same substance, the IC50 (µg/mL), neutralization of pseudovirus [15] was greater than 50 µg/mL, the IC50 (µg/mL), neutralization of pseudovirus [16] was 2.15 µg/mL and the IC50 (µg/mL), pseudovirus neutralization [17] was greater than 50 µg/mL. It also gave an IC50 (µg/mL), pseudovirus neutralization [18] of 0.022 µg/mL, an IC50 (µg/mL), pseudovirus neutralization [19] of 0.004 µg/mL and a Fold IC50 increase relative to wild-type [44] of 1.8 fold. It also gave an IC50 (µg/mL), pseudovirus neutralization [20] of 0.018 µg/mL, an IC50 (µg/mL), pseudovirus neutralization [21] of 0.012 µg/mL and an IC50 (µg/mL), pseudovirus neutralization [22] of 19.1 µg/mL. For the same substance, the IC50 (µg/mL), neutralization of pseudovirus [23] was 0.032 µg/mL, the IC50 (µg/mL), neutralization of pseudovirus [24] was 0.514 µg/mL and the IC50 (µg/mL), pseudovirus neutralization [25] was 0.102 µg/mL. It also gave an IC50 (µg/mL), neutralization of pseudovirus [26] greater than 50 µg/mL, an IC50 (µg/mL), pseudovirus neutralization [27] of 2.22 µg/mL and an IC50 (µg/mL), neutralization of pseudovirus [28] of 0.008 µg/mL. The IC50 (µg/mL), neutralization of pseudovirus [29] was 0.033 µg/mL, the IC50 (µg/mL), pseudovirus neutralization [30] was greater than 50 µg/mL and the IC50 (µg/mL), pseudovirus neutralization [31] was greater than 50 µg/mL. It also gave an IC50 (µg/mL), pseudovirus neutralization [32] of 0.016 µg/mL, an IC50 (µg/mL), pseudovirus neutralization [33] of 14 µg/mL and an IC50 (µg/mL), neutralization of pseudovirus [34] of 0.01 µg/mL. The IC50 (µg/mL), neutralization of pseudovirus [35] was 0.606 µg/mL, the IC50 (µg/mL), pseudovirus neutralization [36] was 0.006 µg/mL and the IC50 (µg/mL), pseudovirus neutralization [37] was 32.6 µg/mL. It also gave an IC50 (µg/mL), neutralization of pseudovirus [38] of 31.3 µg/mL, an IC50 (µg/mL), pseudovirus neutralization [39] of 0.032 µg/mL and an IC50 (µg/mL), pseudovirus neutralization [40] of 3.35 µg/mL. For the same substance, the IC50 (µg/mL), pseudovirus neutralization [41] was 0.02 µg/mL and the IC50 (µg/mL), pseudovirus neutralization [42] was greater than 50 µg/mL.
